This passage reports percent of nanoparticle subunits conjugated results from article doi:10.1101/2020.06.11.147496.

The assay deals with LuS-N71-SpyTag (Aquifex aeolicus lumazine synthase nanoparticle with a glycan at N71 and SpyTag at the N-terminus) (Aquifex aeolicus).

For the substance “SARS-CoV-2 spike-SpyCatcher (prefusion-stabilized SARS-CoV-2 spike trimer fused with a C-terminal SpyCatcher)”, the percent of nanoparticle subunits conjugated was 91%.
